Laboratory results reported in patent US20050276800A1 (MEDICAL RESEARCH COUNCIL, published 2005).

Tests used:
[1] = target: T1, LexA DBD (made from the empty pBTM 116 vector) (UniProt P0A7C2 1-202, limits assumed); assay: yeast two-hybrid (His growth, β-gal); data not shown
T1 construct: domain: LexA DBD; Bait-only control in the yeast two-hybrid assay
T1 sequence (looked up): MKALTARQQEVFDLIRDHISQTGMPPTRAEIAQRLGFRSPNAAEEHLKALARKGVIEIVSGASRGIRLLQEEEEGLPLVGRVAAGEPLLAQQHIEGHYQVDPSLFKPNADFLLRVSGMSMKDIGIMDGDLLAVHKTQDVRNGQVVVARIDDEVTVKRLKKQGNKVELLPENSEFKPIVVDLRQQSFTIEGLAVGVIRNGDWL

[2] = target: T2, Recombinant oncogenic HRAS (G12V; residues 1-166) (human, UniProt P01112 1-166); assay: surface plasmon resonance (BIAcore 2000), HRASG12V-GppNp immobilised at about 1500 RU, purified scFv injected
T2 construct: range 1-166; ELISA and BIAcore: purified from bacteria and loaded with GppNp, a non-hydrolysable GTP analogue; Mammalian two-hybrid: codons 1-166 fused C-terminal to the GAL4 DBD (pM1-RASG12V); Yeast two-hybrid: truncated HRASG12V fused to the LexA DBD (pBTM116-RASG12V); The DBD parts are not written into the chain; also called HaRASG12V; Ha-RASG12V

[3] = target: T2, Recombinant oncogenic HRAS (G12V; …); assay: SPR (BIAcore 2000); HRASG12V-GppNp immobilised on CM5 chip, purified scFv as analyte; BIAcore, purified bacterial scFv in vitro; weak micromolar binding

B1: anti-RAS scFv I21 (scFv)
scFv: EVQLLESGGGLVQPGGSLRLSCAASGFTFSSYAMSWVRQAPGKGLEWVSTISYGGSNTNYADSVKARFTISRDNSKNTLYLQMNSLRAEDTAVYYCAKGNNAFDYWGQGTLVTVSSGGGGSGGGGSGGGGSTDIQMTQSPSSLSASVGDRVTITCRASQSISSYLNWYQQKPGKAPKLLIYNASALQSGVPSRFSGSGSGTDFTLTISSLQPEDFATYYCQQYTSTPRTFGQGTKVEIKR
notes: also called ICAb I21
binding result [1]: no binding | Kd [2]: 1310 nM | koff [2]: 0.0212 s⁻¹ | kon [2]: 16700 M⁻¹ s⁻¹ | Kd [3]: 2160 nM
